Measured values from the domain aggregation screens of Martell et al. (2025).

assay: soluble fraction after stress (log2 fold change); higher = more stays soluble; pooled small domains, quantitative proteomics; details: stress: 75 degC
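Note: 20 min heating vs room temperature control held 20 min.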

Row | Sequence | soluble fraction (log2)
1 | HMNNYFPAYKGSATSIAPALKQMGVNNSYAYRSKIAAVNNITGYRGTPAQNTQMLNLLKQGRLIK | 0.349
2 | HMNNYNDSVQKIINYIADNLNENLSVRKLADKMPMSVSHFNRVFQKYTGDSPYAYVMAMRIKKAKYL | -0.157
3 | HMNPAIYIRKNILNLTQEKLSEYLDVTQPTIHRWEESGVIPAKHQRQIREFASEKGIYWNDSWFFSIPDE | -1.53
4 | HMNPDMIAGVLKVPAAAGRLRSALFELGVVDDESYDDDGASRLTVTASQSDLERIVAQAGLVFEDVLVERR | -0.142
5 | HMNPEAFIQTLKQILSTYEKNDPIYLQEIKADLVKKFRIEIPINALETYLKENGYSNIYLKR | -0.168
6 | HMNPEDLSGVRKAAILLLTMDDEVTKDVMKGLDEEEIEAIGKEITNLKLIPDHVVHRVQEEFMTKVSK | 0.107
7 | HMNPESRRSELIDAATKLFFSRGYTATSIRDILDAVDDRTASPSVFYYYFESKEAIYQAVLQRYTD | -2
8 | HMNPETPAQQAVRKRLIVSVQFYRRLKDTPLKAVWQVAARDTLVNGYNLFLKRNIHAFNDRTLSTPSALS | -0.0445
9 | HMNPFPDNTAEVLSQFKNIIVPELNTGQLSKLLRARYLVDTVGINKVEGLPFTAQELEEKIESLINSF | -0.428
10 | HMNPGQIIRKLRQDQGMTLAVLAKYANLDPGNLSRIERDDLNISFNLLEKLSLILNVSPIVFFH | -0.119
11 | HMNPLSELSFEERRELFLEAAVRLFEEKGYKNTSVEDIAGELGFTKKVFYYYWKNKREIVQEIHDRGMA | -0.594
12 | HMNPNFIEVSHGRLRVNVPLSAYEGTTYHIKPEEAEKLKRTLASRYPWLTPNALKVFIEEAEQAMRERIQ | -0.403
13 | HMNPSKEFNMSDLLKAKMVGDVSAAKRREKAGALLHIGYGNAKTFLKKLNHFSISREEWDKVIAAMEEF | -1.26
14 | HMNPSVSSDERILLQKALGILSAEQKQIVMLHAVAGIKHREIAKLLDMPIATVLSKYSRAVNKLRHAMEA | -0.456
15 | HMNPTTDFFKLEGIDATRILVFDQVGRQVAQFSQPAQQMDIQALPAGVYALRIENADGQVYSARIVK | -0.231
16 | HMNPVVATTIILDGEIIKDNLAEANLSEEWLLEELKRQNFNDVKEVFYAEWLDGKQLFAYPYTK | -0.537
17 | HMNQDIIEIGNNIQKIRKKNGISQSVLAEKIDVAGNSIYRMEGATTVMGVDKLINIADALNTSPMDILPAR | 0.0791
18 | HMNQDMINFDKLSVRLKNVLIENNLKTVDSLLNYPAEEFEYLTNLGEKTLQELLTYRNELAASNNIQ | -0.51
19 | HMNQGKLIEMLQEMKEIAHSQNNYLTKNEIANYLGDTVLSKEQLQAVYHYLGENHIEVEGYVYIP | ≥ 1.04
20 | HMNQIATSTQAIITTLSFLNTSSIFKLPVGDTASRPTGVSPGTLRFNSQEDSAEIYKADDGTGSAGWTEVA | -0.296
21 | HMNQIDEATAATITTLNFLNTNSEFKIPVGDTATRPGTPAIGMMRFNSENDKAEIYVADFDGDGNPGWINL | -0.0556
22 | HMNQILDFTREVKNLPEQDKIKIVEALWSIIYSNKDADIYETNLMRRLAGLLYIDNKTMGDIKEKIKQNL | -0.906
23 | HMNQNHFLDSVVEFAKDEASRAFFQKAVKKLGEGLVEEAMGEVKMREADGSVNSRAPYFIALLENWMENR | -0.0208
24 | HMNQNIYVPKLEGLQIEEASSILKSKGLNIEITDSIFRKDAVPGAIIEQTPKPNSRVKTGRNIYVSIYSK | 0.385
25 | HMNQSEMIGSRLKEERLQQKLTLKQLSEKVGLSIGYLSQVERGYGTLSLSALKKLSSALGLEMSTFFD | -2.43
26 | HMNQTGQYENAAKRFNQLITIDSSDKRAYLQLGISNYNLGNKEKADSLFNIIRNSKDKLLIEELDNFLT | -0.102
27 | HMNQYALTDREKNVLGLLVDGLSYKMIADKENISFHTVNAHVRKIYEKLHVHSLAEAVSKALKENL | -2.07
28 | HMNQYRKLDGDVQNQIIYILSEYPKLPATIVYQRLLDTNTIVKKDVSLSTVNRFVQKYKDSKGIT | -1.19

Row | Sequence | soluble fraction (log2)
29 | HMNREDYIKAIFKIAEREGEASNQRIADSLGVSRASASEMVKKLIQEGFVVAEGRQLSLSAEGERIA | -0.185
30 | HMNREEKKALTRRQIIDVATRLFRQHGIHNTDLKTIATEAGVSVVTFYKYFDSKEALIGTIAAEQ | -0.804
31 | HMNRNHVFDSNGPDLRLRGTAQQLFEKYLQLGRDATSGGDRVMAEGYFQHAEHYFRILNAMNQAAMQH | -1.15
32 | HMNRPYETLFTGLTTDEASAIVGKLEEYGAADYKIEGDTIKVPAAQEPDLKAKLLLDGYPKS | 0.231
33 | HMNRTEYMAALRRALSVLPEEERASALRYYEEYFDDAGPENEEKVIADLGAPEKVAGQILADYRE | 0.0934
34 | HMNSDQMKEHLDNLVDMAKKNDNTLIDTEIVNYFVGKPDIELNTDMMTKIFDYLDEHHVAVLS | 0.146
35 | HMNSEFPFNGGRIVDNVPANRLQIFFDEKPDADVRTRLKQNGFRWAPNSGAWQSYRHGYTLDWARREFNA | -0.136
36 | HMNSEPKTKLQEIAQERGLAAPVYETTHTGPDHDRIFSASVTVGDVVAAGEARSRKGAESEAAIAAIKALG | 0.195
37 | HMNSFGWESLIDKEGIADTDLHPSGWVRIDDRRIFVVSEGDFIDKGSGVTVLSVDGNRVVVRELI | -1.38
38 | HMNSHLEEGRHGLQIGDPGIVRARIESDPEGETDMPVVVIDGRNISWNEFGRMVATYTGFQFKLEM | -0.629
39 | HMNSHQNELDNALTEAHTASRRLLEGTDEYLDLSSQPAYIRRLQHLLAQKYNLGSLSSGVEPNRHIRLLQ | -0.265
40 | HMNSIDIENELVKIIEKNGQPMSFDDLVFKLDSLYSTRYKFAKGYIRTIILNSNRIASIGKTSTYSLYKWN | -3.12
41 | HMNSKKETLLSYLYNHSTWSSRNDLSNFLNVSTRQVTNYINEINKNETIVLSSNKGYKINPKFIGKN | -1.61
42 | HMNSKMTYSDLIGNIEQGNVSSVELASDGKSATVTLTDNSQKQVNIPSLDSFVTYVQDHIKAGTLSVEE | 0.344
43 | HMNSKSDDELLSKTTSLLIHAAKIDENYTDKEKEIIKKTLIQLGVKESKADQIMLTAEINEE | ≥ 1.04
44 | HMNSKYILLQVSDIPKTSLVLERQFGVTEYSVQDEHTLRIYDTSLDMAAVNKALVVQDIAVISSQL | -1.69
45 | HMNSLFPLSLKYLREQANITQAELAQKLDVTQQAVGRWERGQTSPDYETLKRLSVLFNVSVDYLLGV | -1.1
46 | HMNSNIIKTINDELSIRKGKYGPYIMYKTKKMKRPKFKSIGDNTPDEFLADKGSISEIILWIN | -0.527
47 | HMNSSHRLIGLDPGLRVTGWGIVDAIGTKLVHVANGSVKSQQNAPLATRLLELENGLEEVFDNWQPDFA | 0.034
48 | HMNSVLPQEVKSSLNDFFTKYAPGSIAQKLINHASFTGGKVVVTGVELTQTQADDLKKAFKDKFF | -0.00219
49 | HMNSVTLEHIVYDFRVFNMLKGSGINDIDELIKAAEDGRLFKIIGSNLTYKRIKKSAAEFGVILPDKPG | -2.25
50 | HMNSVYTPDPKELAKAIKIVTAAREAEQKGQGVIAVDGRMVDAPVVSQALRILELARLAGMEVSE | 0.0743
51 | HMNTAIPIAIDQLRIGMYIQLGLNWMSHPFPVSSFRIASESQIEILRGLGLAEVRYVPAKSDPVP | -3.26
52 | HMNTDEYEQKRGEILDAAQRLIYTKGYERMSIQDILDELKISKGAFYHYFDSKQSLLEALTARMMTE | -0.44
53 | HMNTDIHRLLDEAFVRVDMTPDAQHLKEEIRANLVARVDELEASGVPSADAARRAIAELGDVRELL | 0.291
54 | HMNTFDLSKLEEIILASRDKAMKTKEFTELDNLKNLFITAGLDVQMSKNGIKLIKGPKFNSSLLEDF | -0.878
55 | HMNTIIIDILPKGLSIAGNQTEPKSLIQQLLMARRADPAQPILLRPAIAVPVQNVVELIDRLTAAGI | -0.306
